In experiment [1] the target is RBD of the S protein of SARS-CoV-2 (Wuhan-Hu-1) (SARS-CoV-2 (Wuhan-Hu-1)) (UniProt P0DTC2). Kind of experiment: BLI; Octet RED96e; RBD (Wuhan-Hu-1) immobilised on HIS1K biosensors; analyte 50-3.125 nM miniACE2 or 100-3.125 nM MP-5ff in 1x PBS, 0.02% Tween-20, 0.1% BSA; association 1 min, dissociation 3 min; 1:1 binding model.
In experiment [2] the target is MP-5fc (miniACE2-(GGGGS)5-coiled-coil, trivalent). Kind of experiment: SEC.
Experiment [3] deals with MP-5rc (miniACE2-(EAAAK)5-coiled-coil, trivalent). Kind of experiment: SEC.
Experiment [4] concerns the target MP-3fc (miniACE2-(GGGGS)3-coiled-coil, trivalent). Kind of experiment: SEC.
Experiment [5] has as its target MP-3rf (miniACE2-(EAAAK)3-foldon, trivalent) (bacteriophage T4). The experiment in a line: SEC.
Experiment [6] addresses MP-5rf (miniACE2-(EAAAK)5-foldon, trivalent) (bacteriophage T4). Kind of experiment: SEC.
Experiment [7] has as its target MP-5ff (miniACE2-(GGGGS)5-foldon, trivalent) (bacteriophage T4). Kind of experiment: SEC.
In experiment [8] the target is MP-3rc (miniACE2-(EAAAK)3-coiled-coil, trivalent). Kind of experiment: SEC.
Experiment [9] has as its target MP-3ff (miniACE2-(GGGGS)3-foldon, trivalent) (bacteriophage T4). Kind of experiment: SEC.

We go through nine substances from article PMC10858482.

In experiment [1], “miniACE2 (microprotein LCB3) (designed binder)” registered a Kd of 1.03 nM and a koff of 0.000986 s⁻¹. “MP-5fc (miniACE2-(GGGGS)5-coiled-coil, trivalent) (designed binder)” displayed a stoichiometry N in [2] of 3. In the case of “MP-5rc (miniACE2-(EAAAK)5-coiled-coil, trivalent) (designed binder)”, the stoichiometry N in [3] came out at 3. With “MP-3fc (miniACE2-(GGGGS)3-coiled-coil, trivalent) (designed binder)”, in experiment [4], the stoichiometry N was 3.

In experiment [5], “MP-3rf (miniACE2-(EAAAK)3-foldon, trivalent) (designed binder)” came in with a stoichiometry N of 3. As to “MP-5rf (miniACE2-(EAAAK)5-foldon, trivalent) (designed binder)”, in [6], the stoichiometry N is 3. In [1], “MP-5ff (miniACE2-(GGGGS)5-foldon, trivalent) (designed binder)” displayed a Kd of less than 0.001 nM and a koff of less than 1e-07 s⁻¹. In experiment [7], this substance displayed a stoichiometry N of 3. “MP-3rc (miniACE2-(EAAAK)3-coiled-coil, trivalent) (designed binder)” came in with a stoichiometry N in experiment [8] of 3. In the case of “MP-3ff (miniACE2-(GGGGS)3-foldon, trivalent) (designed binder)”, the stoichiometry N in [9] is 3.
